This is an account of results in PMC13078889.

The Kd is the concentration at which binding is half-saturated. Higher therefore signals lower affinity. The IC50 is the concentration needed to halve the response being measured. Low values mean inhibition by little substance, high ones a need for much substance.

Some results are limits rather than exact numbers.

Series [1] concerns LARP6. As to the kind of experiment: ITC. The following applies: not in the material.
For series [2], the system named is LARP6. The experiment in a line: TR-FRET competition. The following applies: vs DIG-labeled A1 RNA; not in the material. (In general: Time-resolved FRET reads energy transfer from a long-lived donor to a nearby acceptor.)

COL1A1-5'SL (A1), ITC came in with a Kd in series [1] (only stated as higher Kd than COL1A1-TIS, value in Table 2 not in material) of more than 400 nM. In series [2], A1 RNA (COL1A1 5'SL, 48 nt) displayed a half-inhibitory concentration (IC50) of 6.84 nM. Take COL1A1-TIS: in series [1], the Kd is 400 nM. This substance also returned an IC50 in series [2] of 2.71 nM.
